Assay results as given in the nanobody polyreactivity screen of Harvey et al. (2022).

Assay: yeast display, Sf9 membrane polyspecificity reagent, FACS + sequencing; frameworks hold sequencing errors
Method in brief: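 Polyreactivity labels are assigned by the sorting gate from which each nanobody was recovered. The gates were low and high (top ~1%), set on anti-HA fluorescence for expression and streptavidin fluorescence for reagent binding. Before sorting, galactose-induced (36–48 hours) yeast display cells were stained for 1 hour at 4 °C with 10% biotinylated, detergent-solubilized Sf9 membrane reagent.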

Row | Sequence | polyreactivity (PSR sort gate)
1 | QVQLVESGGGLVQAGGSLRLSCAASGSTFPYNAMGWYIQAPGKERELVAAISSRGGRTYYADSVKGRFSISRDNAKYTVYLQMNSLKPEDTAVYYCAARVVSRKDMNYWGQGTQVTVSS | high polyreactivity
2 | QVQLVESGGGLVQAGGSLRLSCAASGHIFIRYAMGWYRQAPGKDRELVAASTGSGGSTYYADSVKGRFTISRDYAKNTVYLQMNSLKPEDTAVYYCAARTSKKYVPYDYWGQGTQVTVSS | high polyreactivity
3 | QVQLVESGGGLVQAGGSLRLSCAASGRTFQEYAMGWYRQAPGKERELVADISDGGSTNYADSVKGRFTISRDNAKNTVYLQMYSLKPEDTAVYYCAADQYHGVGINFRSDYDYWGQGTQVTVSS | low polyreactivity
4 | QVQLVESGGGLVQAGGSLRLSCAASGFTFAYYAMGWYRLAPGKERELVAAINRSGGSTYYADSVKGRFTISRDNAKNTVYIEMNSLKPEDTAVYYCAAARPSLRDGVAHYYWGQGTQVTVSS | high polyreactivity
5 | QVQLVESGGGLVQAGGSLRLSCAASGRIFYGYAMGWYRQAPGKERELVAAISWRGGRTYYADSVKGRFTISRDNAKNTVYLQMNSLKPEDTAVYYCAVRWPSARIPVKLDYWGQGTQVTVSS | high polyreactivity
6 | QVQLVESGGGLVQAGGSLCLSCAASGFIFEFYTMGWYRQAPGKERELVAAITNGDSTNYADSVKGRFTISRDNAKNTVYLQMNSLKPEDTAVYYCAADGKGETEYSSHPGWAFDYWGQGTQVTVSS | low polyreactivity
7 | QVQLVESGGGLVQAGGSLRLSCAASGRNLQNYAMGWYRQPPGKERELVAAISFSGGRTNYADSVKGRFTISRDNAKNTVYLQMKSLNPEDTAVYYCAKVYRRSGSVSRYDYWGQGTQVTVSS | high polyreactivity
8 | QVQLVESGGGLVQAGGSLRLSCAASGSTVNFYAMGWYRQAPGKERELVAAISWRGNTYYADSVKGRFTISRDNAKNTVYLQITSLKPEDTAVSYCDAYEWLAYTSAWYGYWGQGTQVTVSS | high polyreactivity
9 | QVQLVESGGGLVQAGRSHRLSCAASGFTFAPNAMGWYRQAPGKERELVARIDRAGSTYYADSVKGRFTISRDNAKNTVYLQMNSLKPEVTAVYYCAVVAVLSRPYATKFDYWGQGTQVTVSS | low polyreactivity
10 | QVQLVESGGGLVQAGASLRLSCAASGSTFYIYAMGWYRQAPGKERELVAGISSGSTYYADSVKGRFTISRDNAKNTVYLQMNSLKPEVTAVYYCAVDSYYFLKDPISYGLYYYWGQGTQVTVSS | low polyreactivity
11 | QVQLVESGGGLVQAGGSLRLSCAASGYTFKTNDMGWYRPAPGKEREFVAAISAIGGSTYYADSVKGRFTISRDNAKNTVYLQMNSLKPEDTAVYYCAKDKSPYGYATNQYRKYYYWGQGTQVTVSS | low polyreactivity
12 | QVQLVESGGGLVQAGGSLRLSCAASGPILGQYAMGWYRQAPGKDRELVAAITYSGGRTYYADSVKGRFTLSRDNAKNTVYLQMNSLKPEDTAVYYCAARGRASVERRGGYYYWGQGTQVTVSS | high polyreactivity
13 | QVQIVESGGGLVQARGSLLLSSAASGFTSNYYALGWYRHAPGKESELVAAITTGGSTHYADSVKGRFTFSRDNAQNTVYLQLNSLKQVDSAVYYCAAGTNRQQQRYFHNGGYYQYNYWGQGTQVTVSS | low polyreactivity
14 | QVQLVESVGGLDQAGGSLRLSCAASVFTFNIYVMGWYRQAPGKERELVAAISTSTGSTYYADSVKGRFTISRDNAKNTVYLQMNSLKPQDTAVYYCNADDYDLRFDYWGQGTQVTVSS | low polyreactivity
15 | QVQLVESGGGLVQAGGSLRLSCAASISSSNAMGWYRQAPGKERELVAAIRWSGTSTYYADSVKGRFTISRDNANNTVYLQMNSLKPEETAVYYCAARYVRVGYDYWGQGTQVTVSS | high polyreactivity
16 | QVQLVESGGGLVQAGGSLRLSCAASGRTFWNYAMGWYRQAPGKERDLVAVIRFSDGSTYYAYSVKGRFTISRDNAKNTVYLHMNSLKPEDTAVYYCAAKGPRRWGSGFDYWGQGTQVTVSS | low polyreactivity
17 | QVQLVESGGGLVQAGGSLRLSCAASGLTLYLYTMGWYRQAPRTDRELVASIDSGTSTKYADSVKGRFTISRDHAKYTVYLQMNRLKPVDTAGYDCAAGVWVTRYFGYYYWGQGTQVTVSS | low polyreactivity
18 | QVQLVESGGGLVQAGGSLRLSCAPSGRIFHQYAMGFYRKSPGKERELVAAITWSGGSTHYADSVKGRYTISRDNAKNTVYLQLNSLKPEDTAVYYCAARKSGGLLDYWGQGTQVTVSS | low polyreactivity
19 | QVQLVESGGGLVQAGGSLRLSCAASGRIFSFNAMGWYRQAPGKERELVASGGSTYADSVKGRFTISRDNAKNTVYLQMNSLKPEDTAVYYCAADPFYYFPSPFDYWGQGTQVTVSS | low polyreactivity
20 | QVQLVESGGGLVQAGGRLRLSCAASGRIFPKNTMGWNRPAPGKERELVAAINWNGGRTYYADSVKGRYTISRDNAKTTVYLQMNSLKPEDTAVYYCAKDGYWVFDYWGQGTQVTVSS | low polyreactivity
21 | QVQLVESGGGLVQAGGSLRLSCAASGFTFKYYVMGWYRQAPGKAREWVAAITNGGSTYYADSVKGRFTISRDNAKNTVYLQMNSLKPEDTAVYYCAASAYYHWLFDYRGQGTQVTVSS | high polyreactivity
22 | QVQLVESGGGLVQAGGSLRLSCAASGGIFYGNVMGWYRHAPGKERELVADITSVGSTYYADSVKGRFTISRDNAKNTVYLQMNSLKPEDTAVYYCAAETYLVFSTWYGYDYCGQGTQVTVSS | low polyreactivity

Row | Sequence | polyreactivity (PSR sort gate)
23 | QVQLVESGGGLVQAGGSLRLSCAASGSIFGVNAMGWYRQAHGKERELVASITGGDSTNYADSVKGRFTISRDNAKNTVYLLMNSLKPEDTAVYYCAKDHYYRYEEGDYWGQGTQVTVSS | low polyreactivity
24 | QVQLVESGGGLVQAGGSLRLSCAASGFIFYEYDMGWYRQAPGKERELVAAISVSGGSTYYADSVKGRFTISRDNAKNTVYLQRNSLKPEDTAVYYCAVFLPDYGRYDYWGQGTQVTVSS | low polyreactivity
25 | QVQLVESGGGLVQAGGSLRLSCAASGLTCSRNAMGWYRQAPGKERELVAAINWSGGSTYYADSVKGRFTISRDNAKNTVYLQMNSLKPEDTAVYYCAAEYAPSPYDWGYEYWGQGTQVTLSS | high polyreactivity
26 | QVQLVESGGGLVQAGGSLRLSCAASGITFGSYAMGWYRQAPGKEREFVAAISLSGGNTYYADSVKGRFTISRDNAKNTVYLQMNSRKPEDTAVYYCAADYDYSGYGYWGQGTQVTVSS | high polyreactivity
27 | QVQLVESGGGLVQAGGSLRLSCASSGRTFLRYAMGWYRQAPGKERELVAAISSRGGTTHYADSVKGRFTISRDNAKNTVYLPMNSLKPEDTAVYYCAAKSFLPYLKFGYWGQGTQVTVSS | high polyreactivity
28 | QVQLVESGGGLVQAGGSHRLSCAASGLILGINAKGWYRQAPGTERELVAAISSSGGRTSYADSVKGRFTISRDNGKNTVYLQMNSLNPEDTAVYYCAKRRTTYSHYDYWGHGTQVTVSS | low polyreactivity
29 | QVKLVESGGGLVQAGGSLRLSCAASGSIISGYAMGWYRQAPGKERELVAAISSSGGRTYYADSVKGRFTISRDNAKNTVYLQMYSLKPEDTAVYYCATVWSIVRGSYYNRYDYWGQGTQVTVSS | high polyreactivity
30 | QVQLVESGGGLDQAGGSLRLSCAASGRTFGYYTMGWYRQAPWKERELVARINYIGSSTYYADSVKGRFTISRDNAKNTVYLQLNSLKREDTAVYYCNADTARGRSGVRRYYWGQGTQVTVSS | high polyreactivity
31 | QVQLVESGGGLVQAGGSLRLSCAACGFTFTAYAMVWYRQAPGKERELVAAISYRGGRTNYAYSVKGRFTISRDNAKNTVYLQMNSLKPEDTAVYYCAARPRISTREMDYWRQGTQVTVSS | high polyreactivity
32 | QVQLVESGGGLVQAGGSLRLSCAASGSIFSVYAMGWYRPAPGKERELVASITNDGSTNYADSVKGRFTISRDNAKNTVYLQMNSLKPEDTAVYYCNADSYTKLDYWGQGTQVTVSS | low polyreactivity
33 | QVQLVESGGGLVQAGGSLRLSCAASGRTFSFYAMGWYRQAPGKERELVAGIDWDDGSTSYADSVKGRFTISRDNAKNTVYLQMNSLKPEDTAVYYCAADIGYDVYNDYDYWGQGTQVTVSS | low polyreactivity
34 | QVQLVESVGGLDQAGGSLRLSCAASGFILSWYAMGWYRQAPGKERELVAGISRRGGSTYYADSVTGRFTISRDNAKNTVYLQMNSLKPEDTAVYYCNALYDEWSVSTGDYWGQGTQVTVSS | high polyreactivity
35 | QVQLVESGGGLVQAGGSLRLSCAASGSTFRGNAMGWYRQAPGKERELVAAISESGTDTYYADSVKGRFTISRDNAKKTVYLLMNSLKPEDTAVYYCAKDYSGTYYAQYNYWGQGTQVTVSS | low polyreactivity
36 | QVQLVESGGGLVQAGRSLRLTCAASGRIFTPYAMGWYRQAPGTERELVATITLSGGSTYYADSVKGRFTISRDYAKNTVYLQMNSLKPEDTAVYYCNKDTHLHVVDYRTGYDCWGQGTQVTVSS | low polyreactivity
37 | QVQLVESGGGLVQAGGSLRLSCAASGSTFAYNAMGGYRKAPGKERELVATISTDGSTYADSVKGRFTISRDNAKNTVYLQMNSLKPEDTAVYYCNADGHPSDPGYDYWGQGTHVTVSS | low polyreactivity
38 | QVQLVESGGGLVHAGGSLRLSCAASGSIFGANVMGWYRQAPGKERELVAAITRSGTRTYYADSVKGRFTISRDNAKNTVYLQMNSLKPEDTAVYYCAAVLRLSTLTTDFGYWGQGTQVTVSS | high polyreactivity
39 | QVQLVESGGGLVQAGGSLRLSCAASGFIFRYYALGWYRQAPGKERELVAAISWRGGTTYYADSVKGRFTISRDNAKNTVYLQMQSLKPEDTAVYYCAADWQWDLGPYIYQVEYWGQGTLVTVSS | high polyreactivity
40 | QVQLVESGGGLVQAGGSLRLSCAASGIIIAWYAMGWYRQAPGKERELVAAITSGGGSTYYADSVKGRFTISRDNAKNTVYLQMNSLKPEDTAVYYCAADYQTIGWGYDYWGQGTQVTVSS | low polyreactivity
41 | QVQLVESGGGLVQAGGSLRLSCAASGRTTYWYAMGWYRQAPGKERELLADISWSGGSTYYADSVKGRFTISRDNAKNTVYIQMNSLKPEDTAVYYCNAAEQKYSIYYAFDTGPYDYWGQGTQVTVSS | low polyreactivity
42 | QVQLVDSGVGLVQAGGRLRLSCAASGRIFPFNAMGWYRQSPGKERELVAAITSSGGRTYYADSVKGRFTISRDNAKNTVYLQMNSLKPVDTAVYYCAATLVRRARSGPMGYWGQGTQVTVSS | high polyreactivity
43 | QVQLVESGGGLVQAGGSLRLSCAASGRIFGTNARGWYRQAPGKERELVADITSGGSTNYADSVKGRFTISRDNAKNTVYLQMNSLKPEDTAVYYCAADVIGDLRWYRDEYWGQGTQVTVSS | low polyreactivity
